Results published in patent US20250289897A1 (Eli Lilly, published 2025).
Each block holds one binder with its values, some of them ahead of it.

Experiments:
[1] = target: T1, cynomolgus monkey LEPR, full length, on HEK293-STAT3Luc-cmLepR2 cells (Macaca fascicularis); test: flow cytometry on live HEK293-STAT3Luc-cmLepR2 cells, AF647 anti-human IgG; average of 4 runs, SD 0.7
T1 construct: whole, on cells; also called cyno-LEPR; Macaca fascicularis LEPR

[2] = target: T2, human FcγRIIIA_158V (CD16a) extracellular domain (human, UniProt P08637 17-208); test: SPR at 25 C, antibody captured on Protein A chip
T2 construct: extracellular domain

[3] = target: T3, human FcγRIIA_131H (CD32a) extracellular domain (human, UniProt P12318 34-217); test: SPR at 25 C, antibody captured on Protein A chip
T3 construct: extracellular domain
T3 sequence (looked up): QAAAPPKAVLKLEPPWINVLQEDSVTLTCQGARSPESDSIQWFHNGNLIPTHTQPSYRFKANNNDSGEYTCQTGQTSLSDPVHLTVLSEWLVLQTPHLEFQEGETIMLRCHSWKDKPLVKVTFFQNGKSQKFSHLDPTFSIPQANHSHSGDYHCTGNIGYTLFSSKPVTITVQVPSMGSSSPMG

Mouse LEPR-ECD-His = target: T4, Mouse LEPR-ECD-His (mouse, UniProt P48356 22-839); test: SPR (Biacore T200), antibody captured on Protein A/G chip, n = 1
T4 sequence: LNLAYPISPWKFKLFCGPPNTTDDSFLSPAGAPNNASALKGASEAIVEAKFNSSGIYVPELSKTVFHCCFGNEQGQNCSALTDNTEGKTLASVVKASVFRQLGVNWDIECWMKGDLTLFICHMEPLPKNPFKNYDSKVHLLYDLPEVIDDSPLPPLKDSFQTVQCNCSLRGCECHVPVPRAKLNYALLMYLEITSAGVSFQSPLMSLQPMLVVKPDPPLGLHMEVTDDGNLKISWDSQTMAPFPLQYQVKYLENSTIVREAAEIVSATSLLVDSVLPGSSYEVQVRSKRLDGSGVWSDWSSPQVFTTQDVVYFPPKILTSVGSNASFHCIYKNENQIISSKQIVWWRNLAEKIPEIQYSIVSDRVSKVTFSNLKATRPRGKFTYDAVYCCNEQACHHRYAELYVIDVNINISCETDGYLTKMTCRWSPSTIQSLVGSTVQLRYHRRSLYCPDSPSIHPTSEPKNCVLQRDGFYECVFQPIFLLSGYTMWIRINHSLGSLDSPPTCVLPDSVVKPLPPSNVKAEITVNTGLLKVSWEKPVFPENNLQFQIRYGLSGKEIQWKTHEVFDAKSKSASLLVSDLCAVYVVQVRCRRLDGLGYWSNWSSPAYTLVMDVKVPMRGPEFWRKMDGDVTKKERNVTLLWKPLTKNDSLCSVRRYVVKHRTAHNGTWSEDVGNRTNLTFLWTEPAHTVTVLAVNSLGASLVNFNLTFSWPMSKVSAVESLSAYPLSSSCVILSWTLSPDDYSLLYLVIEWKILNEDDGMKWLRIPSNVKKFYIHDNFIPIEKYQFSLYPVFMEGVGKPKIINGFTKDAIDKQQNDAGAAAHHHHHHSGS

[4] = target: T5, human LEPR, full length, on HEK293-STAT3Luc-hLepR1 cells (Homo sapiens, UniProt P48357 22-1165); test: flow cytometry on live HEK293-STAT3Luc-hLepR1 cells, AF647 anti-human IgG; average of 4 runs, SD 7.1
T5 construct: also called human LEPR on live cell surface
T5 sequence: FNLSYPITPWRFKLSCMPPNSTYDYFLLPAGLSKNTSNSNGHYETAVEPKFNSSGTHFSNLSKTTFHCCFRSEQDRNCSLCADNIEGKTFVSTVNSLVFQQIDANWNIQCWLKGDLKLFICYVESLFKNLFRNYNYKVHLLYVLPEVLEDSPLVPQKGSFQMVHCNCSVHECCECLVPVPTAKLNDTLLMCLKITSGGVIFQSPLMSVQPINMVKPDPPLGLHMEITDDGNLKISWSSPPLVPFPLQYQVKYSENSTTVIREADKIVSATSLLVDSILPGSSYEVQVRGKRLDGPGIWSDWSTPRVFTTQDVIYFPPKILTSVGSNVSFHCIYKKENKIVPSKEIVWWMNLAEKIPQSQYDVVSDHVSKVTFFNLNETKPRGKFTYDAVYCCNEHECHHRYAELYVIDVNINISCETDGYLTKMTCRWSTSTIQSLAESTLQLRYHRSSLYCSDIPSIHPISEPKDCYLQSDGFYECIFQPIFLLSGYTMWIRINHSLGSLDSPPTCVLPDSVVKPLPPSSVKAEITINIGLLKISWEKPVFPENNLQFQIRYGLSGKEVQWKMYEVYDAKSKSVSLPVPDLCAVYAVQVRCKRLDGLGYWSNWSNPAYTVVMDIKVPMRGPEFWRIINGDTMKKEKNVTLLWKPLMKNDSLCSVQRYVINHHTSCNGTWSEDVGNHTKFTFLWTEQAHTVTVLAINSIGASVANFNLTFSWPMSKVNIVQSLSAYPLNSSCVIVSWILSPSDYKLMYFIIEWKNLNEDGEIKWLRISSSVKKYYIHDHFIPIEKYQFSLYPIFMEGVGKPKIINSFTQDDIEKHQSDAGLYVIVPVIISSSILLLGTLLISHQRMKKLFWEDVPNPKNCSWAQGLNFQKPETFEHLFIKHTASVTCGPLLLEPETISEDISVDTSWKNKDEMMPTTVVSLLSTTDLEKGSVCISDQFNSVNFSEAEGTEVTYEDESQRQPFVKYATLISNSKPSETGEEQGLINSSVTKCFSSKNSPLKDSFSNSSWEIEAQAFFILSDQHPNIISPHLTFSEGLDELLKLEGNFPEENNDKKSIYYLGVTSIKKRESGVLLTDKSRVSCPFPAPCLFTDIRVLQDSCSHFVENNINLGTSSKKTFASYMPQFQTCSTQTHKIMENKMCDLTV

EC50 [1]: 0.74 nM
B1: Antibody A (antibody, human IgG1, kappa, L234A L235A)
heavy: EVQLLESGGGLVQPGGSLRLSCAASGFTFSSFAMSWVRQAPGKGLEWVSAISGSGGSTYSADSVRGRFTISRDNSKNTLYLQMNSLRAEDTAVYYCAKDQGDWDFLFDYWGQGTLVTVSSASTKGPSVFPLAPSSKSTSGGTAALGCLVKDYFPEPVTVSWNSGALTSGVHTFPAVLQSSGLYSLSSVVTVPSSSLGTQTYICNVNHKPSNTKVDKRVEPKSCDKTHTCPPCPAPEAAGGPSVFLFPPKPKDTLYITREPEVTCVVVSVSHEDPEVKFNWYVDGVEVHNAKTKPREEQYNSTYRVVSVLTVLHQDWLNGKEYKCKVSNKALPAPIEKTISKAKGQPREPQVYTLPPSREEMTKNQVSLTCLVKGFYPSDIAVEWESNGQPENNYKTTPPVLDSDGSFFLYSKLTVDKSRWQQGNVFSCSVMHEALHNHYTQKSLSLSPGK
light: DIQMTQSPSFLSASVGDRVTITCRASQGISSSLAWYQQKPGKAPKLLIYTASTLQSGVPSRFSGSGSGTEFTLTISSLQPEDFATYYCQQLIYYPFTFGQGTKVEIKRTVAAPSVFIFPPSDEQLKSGTASVVCLLNNFYPREAKVQWKVDNALQSGNSQESVTEQDSKDSTYSLSSTLTLSKADYEKHKVYACEVTHQGLSSPVTKSFNRGEC
notes: IgG1 mAb
binding result [2]: no binding (tested: receptor ECD tested up to 10 µM)
binding result [3]: no binding (tested: receptor ECD tested up to 10 µM)

B2: Antibody C (antibody, human IgG1, kappa, L234A L235A, V domains shown)
VH: EVQLLESGGGLVQPGGSLRLSCAASGFTFSSFAMSWVRQAPGKGLEWVSAISGSGGSTYSADSVRGRFTISRDNSKNTLYLQMNSLRAEDTAVYYCAKDQGDWDFLFDYWGQGTLVTVSS
VL: DIQMTQSPSFLSASVGDRVTITCRASQGISSSLAWYQQKPGKAPKLLIYTASTLQSGVPSRFSGSGSGTEFTLTISSLQPEDFATYYCQQLNYYPFSFGQGTKVEIKR
binding result (Mouse LEPR-ECD-His): no binding (tested: LEPR-ECD tested up to 1000 nM)

EC50 [4]: 13.6 nM
B3: Antibody B (antibody, human IgG1, kappa, L234A L235A, V domains shown)
VH: EVQLLESGGGLVQPGGSLRLSCAASGFTFSSFAMSWVRQAPGKGLEWVSAISGSGGSTYSADSVRGRFTISRDNSKNTLYLQMNSLRAEDTAVYYCAKDQGDWDFLFDYWGQGTLVTVSS
VL: DIQMTQSPSFLSASVGDRVTITCRVSQGISSSLAWYQQKPGKAPKLLIYTASTLQSGVPSRFSGSGSGTEFTLTISSLQPEDFATYYCQQLNYYPFTFGQGTKVEIKR
